{
  "source": "patent US12129493B2",
  "about": "“Host cells and methods useful for producing unnatural terpenoids using a novel artificial metalloenzyme” (The Regents of the University of California, priority 2020, dated 2024)",
  "key": {"E. coli BL21(DE3) cells": {"system": "E. coli BL21(DE3) cells", "assay": "Evaluation of the effect of Ir(Me)MPIX and cyclopropyl limonene on cell growth (OD600)", "type": "cell-based, Escherichia coli", "conditions": "0, 0.2, 1, 5, 25 mg/L cyclopropyl limonene, 1% (v/v) ethanol, 30° C."}, "BL21(DE3) cells": {"system": "BL21(DE3) cells", "assay": "Cytotoxicity of Ir(Me)MPIX and cyclopropyl limonene, cell growth by OD600", "experimental": "10. […] Individual colonies from freshly transformed plates (incubated at 30° C.) were inoculated into 2 mL M9-rich media supplemented with appropriate antibiotics. A 1:100 dilution of overnight cultures into 300 μL M9-rich media was performed in a 48-well plate. […] The OD600 values were recorded by a plate reader (F200 or F200pro, Tecan) set at 30° C.\nCyclopropyl limonene; BL21(DE3) cells co-transformed with pHug21 (coding for HUG system) and pJHA110 (coding for CYP119 mutant) were grown and cultivated as described above. The stock solution of cyclopropyl limonene in ethanol was added to the cell culture to give final concentration of 0, 0.2, 1, 5, 25 mg/L cyclopropyl limonene and 1% (v/v) ethanol. The OD600 values were recorded by a plate reader (F200 or F200pro, Tecan) set at 30° C."}, "[1]": {"assay": "Cyclopropanation of (−)-limonene by Ir-CYP119 reconstituted in vitro or free cofactor", "type": "biochemical", "conditions": "Ir-CYP119 mutants reconstituted in vitro, average of two replicates", "experimental": "12. […] The buffer of the protein solution was subsequently exchanged to TRIS buffer (20 mM, pH 7.5) using a NAP-10 column (GE Healthcare). […] To the reaction vial, 10 μL of 0.125 M stock solution of limonene in EtOH was added. The reaction vial was sealed with a cap containing a septum. The syringes of a multichannel syringe pump were loaded with a stock solution of EDA in DMSO (20 μL of 0.25 M solution of EDA in DMSO), and the EDA solution was added to the reaction over 1.5 h. The reaction was quenched upon the conclusion of the addition of EDA by adding 100 μL of 2 N HCl and extracted with 1 mL dodecane stock solution (0.1% (v/v) in ethyl acetate). The organic layer was then transferred to a separate vial for GC analysis."}, "[2]": {"type": "cell-based, E. coli", "conditions": "whole cells harboring Ir-CYP119 mutants, average of three biological repeats"}, "CYP119 [3]": {"target": "T1, CYP119 (Sulfolobus acidocaldarius, UniProt Q55080, C317G/L155W/T213G/V254L)", "T1 construct": "made in house; host or cells: E. coli BL21(DE3), co-transformed with pHug21 (HUG) or pBbS5a (RFP control)", "assay": "ICP-MS measurement of CYP119 purified from E. coli co-expressing heme transport system (100 mL culture)", "type": "cell-based", "conditions": "0.1 μM Ir(Me)MPIX, single replicates", "experimental": "(b) Protein purification (100 mL culture); A plasmid containing CYP119 mutant (pJHA110) was co-transformed with a plasmid (pHug21) encoding the heme transport system HUG, or an empty vector backbone (pBbS5a) into chemically competent BL21(DE3) (NEB) cells. Individual colonies from freshly transformed plates were inoculated into 4 mL M9-rich media supplemented with 100 μg/mL carbenicillin and 25 μg/mL kanamycin. The cultures were grown overnight at 37° C. and 200 rpm. In a 500 mL Erlenmeyer flask, 100 mL of M9-rich media was inoculated with 1 mL of overnight starter culture and incubated at 37° C. and 200 rpm to an OD600 of 0.7˜0.8. […] Upon induction, the incubation temperature was reduced to 30° C., and expressions were allowed to continue for 18 h at 200 rpm. Cells were harvested by centrifugation and stored at −20° C. until purification.\n(§1) Cell debris was removed by centrifugation (10000 rpm, 45 min, 4° C.). The supernatants were incubated with Ni-NTA agarose (50% suspension, 4 mL) on a tube rotator (15 min, 4° C., 20 rpm) and poured into glass frits (coarse, 50 mL). The resin was washed (3×35 mL) with Ni-NTA lysis buffer (50 mM NaPi, 250 mM NaCl, 10 mM Imidazole, pH 8.0). The desired protein was eluded with 15 mL Ni-NTA elusion buffer (50 mM NaPi, 250 mM NaCl, 250 mM Imidazole, pH 8.0) and concentrated to 1 mL with a 30 kDa molecular weight cut-off Amicon centrifugal filtration device (EMD Millipore).\n(§2) (c) ICP-MS analysis; Cone. HNO3 was added to each sample (1 mL) in to make a final concentration of 4% (v/v). After microwave digestion (140° C., 30 min), the samples were analyzed by ICP-MS (Elemental Analysis Core, Oregon Health & Science University)."}, "CYP119 [4]": {"target": "T1, CYP119", "assay": "Fe and Ir content of CYP119 purified from HUG/CYP119 E. coli (700 mL culture)", "type": "cell-based", "conditions": "0.2 mg/L Ir(Me)MPIX", "experimental": "[…] Individual colonies from freshly transformed plates were inoculated into 4 mL M9-rich media supplemented with 100 μg/mL carbenicillin and 25 μg/mL kanamycin. The cultures were grown overnight at 37° C. and 200 rpm. In a 500 mL Erlenmeyer flask, 100 mL of M9-rich media was inoculated with 1 mL of overnight starter culture and incubated at 37° C. and 200 rpm to an OD600 of 0.7˜0.8. […] Upon induction, the incubation temperature was reduced to 30° C., and expressions were allowed to continue for 18 h at 200 rpm. Cells were harvested by centrifugation and stored at −20° C. until purification.\nas §1, §2"}},
  "note": "Values joined by “and” are separate entries in the source; they are usually repeats but may differ in a detail not shown here. Equal entries are not always repeated.",
  "data": [
    {"molecule": "CCOC(=O)[C@H]1C[C@@]1(C)[C@@H]1CC=C(C)CC1", "note": "[cyclopropyl limonene]", "values": [
      {"measurement": "effect on growth of BL21(DE3) cells co-transformed with pHug21 and pJHA110 (encoding CYP119)", "setting": "E. coli BL21(DE3) cells", "value": "little effect on the growth"},
      {"measurement": "effect on cell growth", "setting": "BL21(DE3) cells; BL21(DE3) with pHug21 and pJHA110, 0-25 mg/L", "value": "little effect"},
      {"measurement": "inhibition of cell growth", "setting": "BL21(DE3) cells; concentration range relevant for the study", "value": "did not inhibit cell growth"}
    ]},
    {"molecule": "P/256W: CYP119 mutant (C317G, T213G, V254L, L155W, R256W) (protein, UniProt Q55080 1-368, looked up, variant C317G T213G V254L L155W R256W) Cytochrome P450 119: MYDWFSEMRKKDPVYYDGNIWQVFSYRYTKEVLNNFSKFSSDLTGYHERLEDLRNGKIRFDIPTRYTMLTSDPPLHDELRSMSADIFSPQKLQTLETFIRETTRSLLDSIDPREDDIVKKLAVPLPIIVISKILGLPIEDKEKFKEWSDLVAFRWGKPGEIFELGKKYLELIGYVKDHLNSGTEVVSRVVNSNLSDIEKLGYIILLLIAGNEGTTNLISNSVIDFTRFNLWQRIREENLYLKAIEEALRYSPPLMWTVRKTKERVKLGDQTIEEGEYVRVWIASANRDEEVFHDGEKFIPDRNPNPHLSFGSGIHLGLGAPLARLEARIAIEEFSKRFRHIEILDTEKVPNEVLNGYKRLVVRLKSNE", "values": [
      {"measurement": "in vitro diastereoselectivity (P2/Ptotal)", "setting": "[1]", "value": 48, "unit": "%"},
      {"measurement": "in vivo diastereoselectivity (P2/Ptotal)", "setting": "[2]", "value": 63, "unit": "%"}
    ]},
    {"molecule": "P (C317G, T213G, V254L, L155W): parent CYP119 mutant (C317G, T213G, V254L, L155W) (protein) MYDWFSEMRKKDPVYYDGNIWQVFSYRYTKEVLNNFSKFSSDLTGYHERLEDLRNGKIRFDIPTRYTMLTSDPPLHDELRSMSADIFSPQKLQTLETFIRETTRSLLDSIDPREDDIVKKLAVPLPIIVISKILGLPIEDKEKFKEWSDLVAFRWGKPGEIFELGKKYLELIGYVKDHLNSGTEVVSRVVNSNLSDIEKLGYIILLLIAGNEGTTNLISNSVIDFTRFNLWQRIREENLYLKAIEEALRYSPPLMRTVRKTKERVKLGDQTIEEGEYVRVWIASANRDEEVFHDGEKFIPDRNPNPHLSFGSGIHLGLGAPLARLEARIAIEEFSKRFRHIEILDTEKVPNEVLNGYKRLVVRLKSNE", "values": [
      {"measurement": "in vitro diastereoselectivity (P2/Ptotal)", "setting": "[1]", "value": 20, "unit": "%"},
      {"measurement": "in vivo diastereoselectivity (P2/Ptotal)", "setting": "[2]", "value": 53, "unit": "%"}
    ]},
    {"molecule": "RFP/CYP119: CYP119 purified from E. coli transformed with pBbS5a (RFP control) and pJHA110 (protein, UniProt Q55080 1-368, looked up) Cytochrome P450 119: MYDWFSEMRKKDPVYYDGNIWQVFSYRYTKEVLNNFSKFSSDLTGYHERLEDLRNGKIRFDIPTRYTMLTSDPPLHDELRSMSADIFSPQKLQTLETFIRETTRSLLDSIDPREDDIVKKLAVPLPIIVISKILGLPIEDKEKFKEWSDLVAFRLGKPGEIFELGKKYLELIGYVKDHLNSGTEVVSRVVNSNLSDIEKLGYIILLLIAGNETTTNLISNSVIDFTRFNLWQRIREENLYLKAIEEALRYSPPVMRTVRKTKERVKLGDQTIEEGEYVRVWIASANRDEEVFHDGEKFIPDRNPNPHLSFGSGIHLCLGAPLARLEARIAIEEFSKRFRHIEILDTEKVPNEVLNGYKRLVVRLKSNE", "values": [
      {"measurement": "Ir, total amount present in the purified protein", "setting": "CYP119 [3]", "value": "0.66 nmol and 0.59 nmol and 0.62 nmol"}
    ]},
    {"molecule": "ChuA/Ton/CYP119: CYP119 purified from E. coli transformed with pJHA184 (ChuA and Ton complex) and pJHA110 (protein, UniProt Q55080 1-368, looked up) Cytochrome P450 119: MYDWFSEMRKKDPVYYDGNIWQVFSYRYTKEVLNNFSKFSSDLTGYHERLEDLRNGKIRFDIPTRYTMLTSDPPLHDELRSMSADIFSPQKLQTLETFIRETTRSLLDSIDPREDDIVKKLAVPLPIIVISKILGLPIEDKEKFKEWSDLVAFRLGKPGEIFELGKKYLELIGYVKDHLNSGTEVVSRVVNSNLSDIEKLGYIILLLIAGNETTTNLISNSVIDFTRFNLWQRIREENLYLKAIEEALRYSPPVMRTVRKTKERVKLGDQTIEEGEYVRVWIASANRDEEVFHDGEKFIPDRNPNPHLSFGSGIHLCLGAPLARLEARIAIEEFSKRFRHIEILDTEKVPNEVLNGYKRLVVRLKSNE", "values": [
      {"measurement": "Ir, total amount present in the purified protein", "setting": "CYP119 [3]", "value": "0.83 nmol and 0.69 nmol and 0.87 nmol"}
    ]},
    {"molecule": "HUG/CYP119: CYP119 purified from E. coli transformed with pHug21 (HUG system) and pJHA110 (protein, UniProt Q55080 1-368, looked up) Cytochrome P450 119: MYDWFSEMRKKDPVYYDGNIWQVFSYRYTKEVLNNFSKFSSDLTGYHERLEDLRNGKIRFDIPTRYTMLTSDPPLHDELRSMSADIFSPQKLQTLETFIRETTRSLLDSIDPREDDIVKKLAVPLPIIVISKILGLPIEDKEKFKEWSDLVAFRLGKPGEIFELGKKYLELIGYVKDHLNSGTEVVSRVVNSNLSDIEKLGYIILLLIAGNETTTNLISNSVIDFTRFNLWQRIREENLYLKAIEEALRYSPPVMRTVRKTKERVKLGDQTIEEGEYVRVWIASANRDEEVFHDGEKFIPDRNPNPHLSFGSGIHLCLGAPLARLEARIAIEEFSKRFRHIEILDTEKVPNEVLNGYKRLVVRLKSNE", "values": [
      {"measurement": "Fe, total amount present in the purified protein", "setting": "CYP119 [4]", "value": "0.044 µmol and 0.031 µmol and 0.035 µmol"},
      {"measurement": "Fe:CYP119 (molar ratio)", "setting": "CYP119 [4]", "value": "12.4% and 8.5% and 9.1%"},
      {"measurement": "Ir, total amount present in the purified protein", "setting": "CYP119 [4]", "value": "0.039 µmol and 0.040 µmol and 0.041 µmol"},
      {"measurement": "Ir:CYP119 (molar ratio)", "setting": "CYP119 [4]", "value": "11.0% and 11.1% and 10.8%"},
      {"measurement": "Ir, total amount present in the purified protein", "setting": "CYP119 [3]", "value": "3.15 nmol and 3.66 nmol and 3.08 nmol"}
    ]}
  ]
}
